Legend:
Assay in all cases: pull-down binding Z-score (relative to library population); higher = stronger binding
[1] = tested on: G-clamp-N3 (biotin conjugate); conditions: RNA library: Library-1 (pre-miRNA loops + repeats)
Outline: (§1)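 Heat-folded RNA library (1 μg, Cy5 or Cy3 end label, phosphate/NaCl/KCl buffer) was captured for 60 min at 25 °C on streptavidin beads displaying 100 pmol of biotin-conjugated small molecule, then washed three times. The bound fraction, eluted in hot SDS, was hybridised to a DNA barcode microarray at 55.5 °C for 20 h. Z-scores for binding were taken against the library mean and standard deviation after beads-only subtraction and trimmed averaging of replicate barcoded probes.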

[2] = tested on: TO-3-N3 (biotin conjugate); conditions: RNA library: Library-2
Outline: as §1

[3] = tested on: TO-3-N3-2 (biotin conjugate); conditions: RNA library: Library-2
Outline: as §1

TO-N3 (biotin conjugate) = conditions: RNA library: Library-2
Outline: as §1

[4] = tested on: TO-N3-2 (biotin conjugate); conditions: RNA library: Library-2
Outline: as §1

Row | Sequence | pull-down binding Z-score [1] | pull-down binding Z-score [2] | pull-down binding Z-score [3] | pull-down binding Z-score (TO-N3 (biotin conjugate)) | pull-down binding Z-score [4]
1 | UUUGUCAUUUAAAAGUAAUGGCAAA [hsa-mir-548ae-2] | 0.815 | 0.207 | 0.00258 | -0.203 | -0.902
2 | UUUCUGUUGUCUGAAAGAAGAGAAA [hsa-mir-526b_518a-1] | 0.288 | -0.47 | -0.214 | -0.697 | -0.584
3 | UCAUAAAUAUUUUAAGGAAUGACCCGGCCCUGGGG [hsa-mir-4285] | -0.171 | -0.306 | 0.31 | -0.199 | 0.308
4 | UCCUGAUCUGAUGGAAGUCAUGA [hsa-mir-7843] | -0.244 | -0.312 | -0.16 | -0.0481 | 0.409
5 | AUCUGAGGUGACUGGCACAGAAGACUCAGG [hsa-mir-6735] | -0.394 | 0.238 | 0.101 | 0.673 | 0.797
6 | AUAGUUUAGAAUUACAUCAAGGGAGAUAACUGU [hsa-let-7a-2] | 0.705 | -0.34 | 0.285 | -0.695 | -0.163
7 | GUCCUGCCCUCACUGGGAACCCCCUUCCCUCUGGGUACCAG [hsa-mir-1324] | -0.948 | 1.48 | 0.477 | 1.88 | 1.39
8 | UUCUCGGUUGGCCGCAGACUCGUACAAGAA [hsa-mir-219b] | 0.895 | -0.383 | 0.0156 | 0.0802 | 0.724
9 | GCUGCUUGCACUCGUUCAGC [hsa-mir-3661] | 0.0999 | -0.0975 | -0.246 | 0.1 | 0.863
10 | GGAAUCCUACGUGAGGGACAAUCAUUCAGACCCACGUAGCAGUGUUCU [hsa-mir-1299] | 0.0519 | 0.353 | 0.392 | 0.632 | 0.496
11 | CGCUGAUGUGCAUUCAACUCAUUCUCAGCA [hsa-mir-1468] | -1.2 | -0.116 | -0.226 | 0.0154 | 0.000597
12 | GGCUCUGGGUCCUGCUCCUUAGAGCA [hsa-mir-2467] | 0.344 | 0.259 | -0.0911 | 0.575 | 0.837
13 | UGUUUAACUCCUCUCCACGUGAACA [hsa-mir-499a] | -0.0505 | 0.828 | -0.0532 | 0.731 | 0.116
14 | UGUACAGGUGAGCGGAUGUUCUGCACA [hsa-mir-3120] | 0.0407 | 1.53 | 0.681 | 1.67 | 1.57
15 | AGAAAGUGAAACACUAUUUUAGGUUUU [hsa-mir-4458] | -0.486 | 0.0524 | -0.00981 | -0.0974 | -0.248
16 | UCCUGUAGUGUCUUAUAUACAAUACAGUAGGA [hsa-mir-613] | -0.0831 | -0.741 | -0.802 | -0.743 | -0.539
17 | UAGGAUUUGGGAGUUAUACUA [hsa-mir-5690] | 0.541 | -0.528 | -0.0337 | -0.492 | -0.349
18 | CCAGGUUCCAUGUGAUGCUGAA [hsa-mir-6806] | 0.154 | -0.162 | 0.299 | 0.316 | 0.575
19 | GGCAUCUAGCACAGGCGGUAGAUGCU [hsa-mir-4486] | 0.983 | -0.546 | -0.34 | -0.481 | -0.132

Row | Sequence | pull-down binding Z-score [1] | pull-down binding Z-score [2] | pull-down binding Z-score [3] | pull-down binding Z-score (TO-N3 (biotin conjugate)) | pull-down binding Z-score [4]
20 | CCCGAGCUGGGCAGCAUGAAGGGCCUCGGG [hsa-mir-486-2] | 3.94 | 1.74 | 0.949 | 1.64 | 1.49
21 | ACGAGAGUGAGUAGCAGGUCUC [hsa-mir-128-2] | 2.31 | -0.117 | 0.361 | 0.627 | 1.51
22 | UCUGUUUUAAGUAACAGA [hsa-mir-7705] | 0.244 | -0.812 | -0.214 | -1.32 | -1.85
23 | UGGGAGUGAUCCCAACAGCUGAGCUCCCU [hsa-mir-7106] | 0.114 | 0.772 | -0.0877 | 0.756 | 0.529
24 | GUUGUUGUCUUACUGCGCUCAACAAC [hsa-mir-7-2] | 0.767 | 0.0252 | -0.285 | -0.0893 | -0.241
25 | AGAAGCCCAGGUUCUGAAUCCCCU [hsa-mir-6734] | -1.05 | 0.393 | 0.23 | 0.628 | 0.901
26 | GUUGUUGUGAGCAAUAGUAAGGAAGCAAU [hsa-mir-34a] | 0.984 | 0.276 | 0.501 | 0.423 | 0.486
27 | CUCACGUGUGCCUGCCUGUGAG [hsa-mir-339] | -0.747 | -1.01 | -0.521 | -0.555 | 1.55
28 | UUCUCCUUGGGAAAAACAGAGAA [hsa-mir-605] | -0.311 | -0.446 | -0.016 | -0.65 | -0.414
29 | GGGUGAGAGUGCUUUCUGAAUGCAGUGCACCC [hsa-mir-500b] | 0.8 | 0.297 | 0.131 | 0.52 | 0.985
30 | GGAGAUCGUACC [hsa-mir-4430] | -0.504 | -0.109 | -0.372 | -0.107 | -0.15
31 | AGUUUGUGAUAAUGUUUGUCUAUAUAGUUAUGAAUG [hsa-mir-4307] | 0.397 | -0.811 | -0.174 | -0.633 | -0.531
32 | UGAAGAAGAGUAUUGAUUGUGCUGUUCG [hsa-mir-6788] | 0.592 | 0.425 | -0.00107 | 0.494 | 0.16
33 | GAAGGGGAGUUUCCCUCUAUUCCCUUC [hsa-mir-3679] | -0.729 | 0.265 | -0.155 | -0.0396 | -0.594
34 | AUAGUUUUAGGGUCAUACCCCAUCUUGGAGAUAACUAU [hsa-let-7f-2] | -1.63 | -0.384 | 0.00457 | -0.497 | -0.745
35 | GCGUCACGUGCACCCAAGUGACGC [hsa-mir-6786] | -0.196 | 0.576 | 0.171 | 0.688 | 0.796
36 | CUGCAGUGAGUAGGUCUGCCU [hsa-mir-4254] | -0.362 | 0.19 | 0.253 | 0.705 | 1.17
37 | CUUUAGGCAUUCAGAAUAGCUAAAG [hsa-mir-4662b] | -0.994 | -0.451 | -0.212 | -0.472 | -0.263
38 | CUGUGUGAGGACUAGAGGCGG [hsa-mir-4523] | 1.39 | 0.0476 | 0.44 | 0.511 | 1.05

Source: the supplement of paper PMC11865577
